Assay: soluble on expression in E. coli; label from the status in PepcDB or PDB records

Soluble on expression in E. coli, not soluble:
MGSDKIHHHHHHMFQYRFKWSFSSDPNLSDRLFELIEVIFPGLNDLVERGRKLGASWESASTPFIRFHDDVAITHVGVLEIPMVIMGQRVTVGGIHGVATRPEFRRKGYYREVIEEVLEYCDQIYETLILTTPEPEYHLPFGFRVVEEYIFHLKCSSKGNVNGWRILDFSDNQDLALLHRLLETRAPVSHVVGVVNEKPVFFVNEGSRDLYYAEDLDLIACIKIENNRLHIFDLVATKICSLKEILGRTSEVIEEVKIYFSPDLLDVDNVQAFPYKLEDTVLMIRGQFAAVGEKFMLPRSARC
MGSDKIHHHHHHMFSAMLEVNPIPEQFDAYLGMAKMLRPELEKIEGFIDNERYESLTRPGWLLSLSNWRDEKSLIRWRTTTKHHKVQQAARDRIFADYRLRIGEVDTDTHLPIGEALHQQRLDVTEAGEGKAVTLLDADRSRYWLNGASAEAVAKSLGLDAQARGLLAWDVFKALLSPEEVIVVLTWRDEAAALAFGKNARLPGDVRLRSIRIVREYGMFDRREAPQYFEEVPRKA
MGSDKIHHHHHHMFSIKRVIYYQELIRVGSFTKAAKALNISQAFLSQEIARLEIETERKLINRTTRQFSLTPFGQIFADKIQGMIKEHYELEQFVSSYEESTDGALLVGVIPIFNRLAHYNMFNLFQKAYPNIDISFIDGVSTDLLERVRNGEIHLSFSTPFDEYLNDPLFHHTICQIDDIVAVMATSHPLADNKTLSLPQLVKEKLIVPQKGTGEHAAVSESFTRQGINPSYFRECSNMDIIMDLVMNLSGVVFLCSSVAKSLTAYDVAVIPLEEQLKRTFAISYLKRSVNIPMVRLFLDFLQDYSESVR
MGSDKIHHHHHHMFSQHSFDFLNSLAVNNDREWFKTNQQQYEDQVRTPALQFIEAMQGPILGLSPRFTAVAKKVGGSLMRPQRDSRFSKDKTPYKTNVGIQFKHFQAKDVHAPGFYVHIANDECFIAAGIWHPESKDLNAIRHCIDENPNAYQKALTQLSQAGFELTGDSLIRPPRGFDKHHPMIDELRRKDFIAIKPISSEQVCQADFIEFCTQEYQHTRALMAYLCFALDLDF
MGSDKIHHHHHHMFTLYERKNRQKSNVNIFVMNYVTNLTKENLAGERIGVFFGTFAPLHVGHQAEIYKAAALNDGVLVVTSGYTGDRGEQIGLPLRKRFRYLRQAFADEWQIKVDYLNEDGIPKMPDGWDVWLDKLLGIIKRNIVNKNAKITFYTGEPDYKKEIEKRLGDNPQFRVSLMDRTILNISATKIRKEPLKYWDYINRVFRRHFVQKVVVMGSSNSGKSTLIRRLARSANSPFSDDFAAIYQEESNVADSEMDIKDYSNIIQGQYQANSLEINSPANNGLAIFNGDAISLQAYSNLLLNQDERLQLKHLYNTIISAEEFDLILVIPPFSDPRRKVIRFTGAAIDPVAYYQELIRLIDFYGFSDKMVVLNAKNQTDDPAGYYARYLQALDAIEKYTSFDIEHHR
MGSDKIHHHHHHMFYQLYEMNHAMMAPWRTAADAMRLAFSNPMNPVSHTYFGRAAAAGLEVFERATRRYGKPEFGLPETEIDGQPVPVRERIVWREPFCNLIHFERSLPRDRAPDPKVLIVAPMSGHYATLLRGTVEALLPHSDVYITDWIDARMVPLSEGTFDLDDYIDYVIQMLHFLGPDAHVIGVCQPAVPVLAAVALMEAAEDPLAPSTMTLMGGPIDTRINPTAVNELAKERPIEWFRDNVVMPVPWPQPGFMRMVYPGFLQLSGFMSMNLDRHLIAHKEFFAHLVKNDGDAAEKHRDFYDEYLAVMDLTAEFYLQTVQVVFMQHALPKGEMIHRGKRVDPTAIRRVALLTVEGENDDISGLGQTKAAQTICTGIPDSMRQHYMQPDVGHYGVFNGSRFRREIAPRIVAFQRRHSRHAKPVKQLIKGGKSA
MGSDKIHHHHHHMGASFNQAGFVKRIFTSHGTTLFVDTSSGELRHGLMEYSPNNVLLTKDGKSAHIRFVDGPTDIVYFTEYSAISGSKRIDGIDALNLMPDNTLTIVDLPRNKFGLVQNGTFLSARSDGRITLSAPLCRGWENFHFRKDASEVSGVIVSHRIDGKIITFFIQDRTDIIQSILFGGDFYERDTLDLIRDRSTPGKVFVDIGANIGNHSIFMSKFCSPSEVIVFEPNPKAIEILKLNVLLNACANINTSYLGLALGSKAAQMRVFSPDPNNMGRAQMLDDDDGNVKCVAGDLLLQQKPVGLLKIDVEGSEFEVLRGMQGTIETWRPNILIEVWPQSQQDLFSWCDSFRYVVQETFPTDNNYFLAPIERQS
MGSDKIHHHHHHMGDLPGLVRLSIALRIQPNDGPVFYKVDGQRFGQNRTIKLLTGSSYKVEVKIKPSTLQVENISIGGVLVPLELKSKEPDGDRVVYTGTYDTEGVTPTKSGERQPIQITMPFTDIGTFETVWQVKFYNYHKRDHCQWGSPFSVIEYECKPNETRSLMWVNKESFL
MGSDKIHHHHHHMGFKEDFMGNAPGACPFLHLVERSTSDVLEQAEALPFWSQDYTQLSKGAFSGSVTSVSCDGLQIFTETMNQAVDQIASAPVDSYVMGLPTLVDGESTWGLLPITTNSLITLEKNAELYFKTSNISEITAAVIPAQRLETYAAEVEWIDLSKVMEGLKPVEMLHPDIAQQLLSALQGGIQYKADIADNIHAHQMWRNFEDDLLSTCLHTLLHVRGNIHPHFDQRLPRYLVNRVRDYTLSNSALPLTIGELCKSLRVSRRTLNHAFIRVLGITPVAYIRNLRLHRVRFEMQQSPHEVISIAHLATKWGFWHLSLFSRYYRELFGECPIDTLQRARLESKRP
MGSDKIHHHHHHMGGNRFGQSPVTGGAGVNAVAKRACLDDVQIAFGQGHRVHVARADTAPDLTRAFAQPIHLCTPICPPRTLTTTRHMDNPHGRAIVHAMEQLDADILIVGGGLNGPCLALACAQAGLSSVVLDALPAQTREETGFDGRAYALALASVRMLDALGIWNQVEDHAQPMLEIKASDGRAGEGAAPFFLHFDHAEIEEGPMGHMLEDRYLRRALMAAMEASSLVAHRAASRVLSQDTNGMASVTLDGGEVLRGRLLIGADGKRSGVAERAGIRRMGWDYNQTALVCAVDHDRPHNGIAHQFFMPGGPLAILPLPGNRSSIVWSESEPRASELAAADDDTFMDALRPAFGDFLGNISLTGQRHSYPLSLSLAQAFVAEKLALVGDAAHGVHPIAGQGLNLGLRDVSALAETLADAKRRGEDFARRDVLDRYQQWRRFDTAGLAVATDSVNRLFSNDNPAVRAIRDIGMGAIGALPTLRRRFIREAAGLTGDLPRLMQGRTL
MGSDKIHHHHHHMGKARRGLQRGNGVHRHEAVRMFISLREIAPQGGLGPPRQLAGRRIAHVLDQAFRVALEVSARCHAVRVAHRVKSFVCTQQSRFVMGRQRLASMAHLRQNPPMAKLYFNYSTMNAGKSTLLLQASYNYIERGMQTYLLTANFDDRAGMGRIGSRIGIEAEADTYTQSDDLFAKIDARLKAGPCACVLVDEAQWMTRDQVWQLARAVDDLGVPVMCYGLRVDFRGELFPGSAALLALADEMREVRTICHCGRKATMVIRVGEDGNALAEGAQIEVGGNDRYISLCRKHFREAVGDVPV
MGSDKIHHHHHHMGLLLKTAASPFACSSGMQNFIANPELESYLRLNRAACGEWTLALQDLLGCSGLACDLSRPKEEVGSLSALGVGGGLVAALSVRQGLELQHCRLESVLLVFPVQGHCELLSDGAAANTLLPFQLILPGQTFSLRVTAESRLLLLMPAEQPQAVQLAAATSEAITLSIQRFLYQAGFLQDHHQGCQAAETVLREVREILAGSSGVTKVTEAVPEPDRRLLKAISKIRTEPDWPFDLQELSSHAGVSERNLYYLMKRQTGMTPYRYYQRCRLIRVRRRLVDCQCAVPHISRYAGDEGFSHFGRFAALYREHFGELPSETVQWRRRLQAQELLAPALS
MGSDKIHHHHHHMGRRLRVEYLGAMYHVVQRGNNREFIFGRPDERDYLIEQVGNAVKVDGVTVFAYVVMSNHYHLLLRTDGEFLSKVMHRVNTRYSRFFNCDSGRDRTGVVFEGRYKAILVQNDDYLLSLVRYIHRNPLRAGIVSRFCDYRWSSDACYRQQGNGPGGGDFVNCDLILRMFSDKKQIALREYKRFMENDDGKDWENIPCIGDDSFAQLAEPRKEKAGRVSLDEILINTGVDNEEFQLIKQGSRKRLLQKYKIAFTGEAIGQGYTMREIGQHIKLSHVAISHLFNSKQDSK
MGSDKIHHHHHHMGRRSHSRSLSIWTNGVRVGRWTVPARGEMELQYDVDWVRADVGRPLSLSLPFNLQNLPLKGERVANYFDNLLPDSDAIRRRVAERFRTGSVDPFDLLKAIGRDCVGAVQILEDEEIPEGFDRIEGVPLSEEDIERHLIETVTPRAFAAGRDPDADFRISLAGAQEKTAFLWWGGQWLAPRGATSTSHIFKLPLGLVGGRRADFSTSVDNEWLCLKLLKAYGLDVAEASIATFGQQRVLVVERFDRRVAPNGQWLMRLPQEDFCQVEGCSPLRKYENEGGPGLKALFATLRQSVNAAVDMRTLMAAQILFWLLRAPDGHAKNFSIQLLPRGRFQLTRLYDVMSAYPVLGDGANQWSPFEIKLAMALIGKNRHYEMHGIQRRHFNSTAQKVGYGPTAEPIIEDLLARTPAIIAAVQADLPQDFSPRVADSVLGGLAQAAKSLGAMMP
MGSDKIHHHHHHMGSETEYGIHAPSAPGANATMMSARVIQAYAQLTRQRAAGGAETRWDYTDEEPLHDARGWTLERNQADPSQLTDQPPVLDAEAVALAYGREELEQDGEDETGSLLMNMVLGNGARLYVDHAHPEYSSPEVTNPLDAVAWDAAGDLVALSAVRRMAADPQLPPVNLYKNNTDNKSVSYGSHENYLMPRAVPFGDIVRGLTPFFITRQIMCGAGRVGLGQDSSRPGYQISQRADFFEAEVGLETTIRRPIINTRDEPHATADKYRRLHVIIGDANLSQAANYLKFGTTAMVLSLIEAGLAPRVEVHEPVAALQAVSHDTSLTATLRLLDGRRVTALDLQWMYHEAAAKLAQDTGVGDSVDGDGHTHALLERWAATLTDLDSDRTAAASSVEWLAKLSLLEGYRQRDGLQWNDARLGLVDLQWADVRPEKGLYYRMLARGRMDRIVADETIARAMTEPPSDTRAYFRGRCVSSFSKDVVGASWDSVIFDVPGHGRLQRVPTREPLRGTEALTGGLFARHKDTGSFLAELLGQTPPPPPA
MGSDKIHHHHHHMGVEHMRGFSNEIILKRTLTLSDFTLRYHKRGITALQVIKAPSVSNVPVLLSGDNYGYFVMWDLVTKRPITHIEIEGNSHIIAFWWVETTNVLYILSKDSMLRIFELDSSTQLSIDLVRKLSQANKTDHLQWTKIYEMPINTLNFANFIIEAEVKPTKDNKSYRLVCCHTDDSETIDIYQIIEDSTFKLKRPFNNINFPRFLKQQNFLGISKDSKFGIIMRFAKLNDVIFLGYENGFVVGFKITFDEGLQRDIAELVHVSNDHYPNPILDMCVSGDELYSCSTDDFITKYKIPVNLQLETKYLRDDALLIKCPSSLRVSEPSKVHLPLKNIGHIDKVKDDYLVVSSWSGMTIVYNMRTSEVEQTFVKSKNNLVVSDSSMGDLTNGSGSNTESSSKSHNYKVGAMTCLESFDVQSDGLRLGQLRRIKALAKCNWCLIGYEDGTIKLNKI
MGSDKIHHHHHHMHAWESIQITLDLIEANLSEEISINELANKANLSPFYYQRLFKRLVNKTVMEYIKLRRLARASEYLAEHKNRILDVALNFGFASHETFTRSFKKAYGLTPEKYRANPVKLNHFIKPELILNYAMVDEGVPLIADDIVIEVNRKTLSNPRTFVGIEIEVPICQLVGGETTGIAIVEELWMKLGSQRHNIPNQIPGGNEFAALYMGNAKEGNCMYMAGVEVESGTSVEGYSTFELPVKEYLVCGFEAENFNELVNSAVFKADKFMERWMKKHNLTTTDFAIEMYYPTTPEAAYLEHWIVPVPIEQ

— the DeepSol protein solubility set
